Measured values from patent publication US20250019450A1 (DIAGONAL THERAPEUTICS, published 2025).
Residue numbers refer to the chain shown, from its start. Like-named read-outs stand apart in the source and are kept apart here.

Assays:
[1] = molecular target: T1, human IL-12RB1 overexpressed on 293T cells (Example 2) (human, UniProt P42701 24-662); assay: FACS, hybridoma supernatant, 293T
T1 construct: whole, on cells

[2] = molecular target: T2, cyno IL-12RB1 overexpressed on 293T cells (Example 2) (cyno, UniProt A0A2K5VWV1 24-662); assay: FACS, hybridoma supernatant, 293T
T2 construct: whole, on cells

[3] = molecular target: T3, IL-12 receptor endogenously expressed on THP-1 cells (UniProt P42701 24-662; Q99665 24-862); assay: FACS, hybridoma supernatant, THP-1
T3 construct: whole, on cells

[4] = molecular target: T4, cyno IL-12RB2 overexpressed on 293T cells (Example 2) (cyno, UniProt A0A2K5VNI7 24-860); assay: FACS, hybridoma supernatant, 293T
T4 construct: whole, on cells
T4 sequence: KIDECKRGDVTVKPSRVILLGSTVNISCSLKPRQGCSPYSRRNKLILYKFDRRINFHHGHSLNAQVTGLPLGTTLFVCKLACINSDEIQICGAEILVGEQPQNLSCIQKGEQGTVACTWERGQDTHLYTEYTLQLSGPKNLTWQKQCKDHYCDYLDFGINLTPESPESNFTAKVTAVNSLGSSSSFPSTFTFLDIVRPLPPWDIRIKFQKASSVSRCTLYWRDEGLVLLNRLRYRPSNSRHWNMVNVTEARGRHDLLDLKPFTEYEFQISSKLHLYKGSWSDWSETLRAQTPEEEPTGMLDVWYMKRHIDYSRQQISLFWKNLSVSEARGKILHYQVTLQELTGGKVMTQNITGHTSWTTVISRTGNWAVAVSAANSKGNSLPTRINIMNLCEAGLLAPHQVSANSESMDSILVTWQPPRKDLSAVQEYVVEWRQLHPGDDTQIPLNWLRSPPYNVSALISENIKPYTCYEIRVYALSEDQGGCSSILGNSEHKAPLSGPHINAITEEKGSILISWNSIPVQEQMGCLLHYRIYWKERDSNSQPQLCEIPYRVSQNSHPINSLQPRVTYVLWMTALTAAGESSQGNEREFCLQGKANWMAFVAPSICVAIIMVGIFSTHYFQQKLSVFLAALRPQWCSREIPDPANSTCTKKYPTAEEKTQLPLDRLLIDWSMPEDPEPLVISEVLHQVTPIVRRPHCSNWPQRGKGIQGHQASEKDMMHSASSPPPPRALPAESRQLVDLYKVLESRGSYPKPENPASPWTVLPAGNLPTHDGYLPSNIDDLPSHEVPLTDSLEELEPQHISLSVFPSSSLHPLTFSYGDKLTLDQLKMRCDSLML

[5] = molecular target: T5, human IL-12RB2 overexpressed on 293T cells (Example 2) (human, UniProt Q99665 24-862); assay: FACS, hybridoma supernatant, 293T
T5 construct: whole, on cells
T5 sequence (looked up): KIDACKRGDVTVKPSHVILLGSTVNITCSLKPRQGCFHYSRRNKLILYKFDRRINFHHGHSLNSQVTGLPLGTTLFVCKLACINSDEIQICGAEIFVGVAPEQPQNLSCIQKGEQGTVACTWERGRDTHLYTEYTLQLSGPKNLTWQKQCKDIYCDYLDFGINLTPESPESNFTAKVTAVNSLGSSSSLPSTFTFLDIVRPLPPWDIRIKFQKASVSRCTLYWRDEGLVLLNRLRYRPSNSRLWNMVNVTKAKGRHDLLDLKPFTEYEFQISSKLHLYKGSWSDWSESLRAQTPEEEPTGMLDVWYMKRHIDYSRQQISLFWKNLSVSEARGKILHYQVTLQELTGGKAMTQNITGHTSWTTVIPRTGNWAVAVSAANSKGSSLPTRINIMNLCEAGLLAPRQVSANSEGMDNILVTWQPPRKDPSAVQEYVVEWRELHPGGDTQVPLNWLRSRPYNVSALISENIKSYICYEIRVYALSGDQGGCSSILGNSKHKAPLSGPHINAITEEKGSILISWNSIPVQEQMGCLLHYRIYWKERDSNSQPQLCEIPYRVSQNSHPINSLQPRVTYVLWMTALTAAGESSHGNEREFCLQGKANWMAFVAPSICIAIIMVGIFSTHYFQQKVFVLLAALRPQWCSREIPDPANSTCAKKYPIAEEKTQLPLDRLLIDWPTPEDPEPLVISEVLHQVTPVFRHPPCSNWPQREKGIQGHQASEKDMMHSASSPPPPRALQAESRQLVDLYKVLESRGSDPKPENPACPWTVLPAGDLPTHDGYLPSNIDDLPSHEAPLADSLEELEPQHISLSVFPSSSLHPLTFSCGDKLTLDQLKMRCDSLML

[6] = molecular target: T3, IL-12 receptor endogenously expressed …; assay: FACS, hybridoma supernatant, THP-1; remark: listed apart in the source

B1: 85801_10M19 (antibody, V domains shown)
VH: EVQLVESGGGLVQPGGSLRLSCAASGFTFSSYDMHWVRQATGKGLEWVSVIGTAGDTYYPGSVKGRFTISRENAKNSLYLQMNSLRAGDTAVYYCARSRGETDWYFDLWGRGTLVTVSS
VL: EIVLTQSPATLSLSPGERATLSCRASQSVSRLLAWYQQKPGQAPRLLIYDASNRATGIPARFSGSGSGTDFTLTISSLEPEDFAVYYCQQRRNWLTFGGGTKVEIK
notes: also called 85801_10M19A
- Fold over parental 293T [1]: 58 fold
- Fold over parental 293T [2]: 21 fold
- Fold over buffer [3]: 35 fold

B2: 85802_06A17 (antibody, V domains shown)
VH: EVQLVQSGAEVKKPGESLKISCKGSGYSFTSYWIGWVRQMPGKGLECMGIIYPGDSDTRYSPSFQGQVTISADKSISTAYLQWSSLKASDTAMYYCARHEGAYWYFDLWGRGTLVTVSS
VL: QSVLTQPPSVSGAPGQRVTISCTGSSSNIGAGYDVHWYQQLPGTAPKVLIYGNSNRPSGVPDRFSGSKSGTSASLAITGLQAEDEADYYCQSLDTSHVVFGGGTKLTVL
notes: also called 85802_06A17A
- Fold over parental 293T [4]: 11 fold
- Fold over parental 293T [5]: 2.8 fold
- Fold over buffer [6]: 28 fold

B3: 85802_08F20 (antibody, V domains shown)
VH: QVQLVQSGAEVKKPGASVKVSCKASGYTFIGYYIHWVRQAPGQGLEWMGWINPHSGGTNYAQKFQGRVTMTRDTSISTAYMELSRLRSDDTAIYYCTKEANNWGYAFDIWGQGTMVTVSS
VL: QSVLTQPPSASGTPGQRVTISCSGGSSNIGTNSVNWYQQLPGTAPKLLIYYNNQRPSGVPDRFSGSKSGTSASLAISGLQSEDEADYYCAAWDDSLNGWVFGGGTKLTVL
notes: also called 85802_08F20A
- Fold over parental 293T [4]: 8 fold
- Fold over parental 293T [5]: 3.4 fold
- Fold over buffer [6]: 21 fold

B4: 85801_07A01 (antibody, V domains shown)
VH: EVQLVESGGGLVQPGGSLRLSCAASGFTFSSYWMSWVRQAPGKGLEWVANIKQDGSEKYYVDSVKGRFTISRDNAKNSLYLQMNSLRAEDTAVYYCAREGLQLGIFDYWGQGTLVTVSS
VL: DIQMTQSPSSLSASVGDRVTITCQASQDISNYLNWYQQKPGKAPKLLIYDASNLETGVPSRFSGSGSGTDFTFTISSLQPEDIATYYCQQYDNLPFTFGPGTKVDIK
notes: also called 85801_07A01A
- Fold over parental 293T [1]: 57 fold
- Fold over parental 293T [2]: 21 fold
- Fold over buffer [3]: 37 fold

B5: 85802_10M17 (antibody, V domains shown)
VH: EVLLVESGGGLVKPGGSLRLSCAASGFTFSSYSMNWVRQAPGKGLEWVSSISSSSDYIHYADSVRGRFTISRDNAKNSLYLQMNSLRAEDTAVYYCARSELGFDYWGQGTLVTVSS
VL: DIQMTQSPSSVSASVGDRVTITCRASQGISIWLAWYQQKPGKAPKPLIYAASSLQSGVPSRFSGSGSGTDFTLTISSLQPEDFATYYCQQANSFPLTFGGGTKVEIK
notes: also called 85802_10M17A
- Fold over parental 293T [4]: 12 fold
- Fold over parental 293T [5]: 3.8 fold
- Fold over buffer [6]: 21 fold

B6: 85802_10K12 (antibody, V domains shown)
VH: QVTLRESGPALVKPTQTLTLTCTFSGFSLSTSGMCVSWIRQPPGKALEWLALIYWDDDKYYSTSLKTRLTISKDTSKNQVVLTMTNMDPVDTATYYCARMRRGIEAFDIWGQGTMVTVFS
VL: QSVLTQPPSVSGAPGQRVTISCTGSSSNIGAGYDVHWYQQLPGTAPKLLIFGYSNRPSGVPVRFSGSKSGTSASLAITGLLAEDEADFYCQSFDISLTGWVFGGGTKLTVL
notes: also called 85802_10K12A
- Fold over parental 293T [4]: 13 fold
- Fold over parental 293T [5]: 3.3 fold
- Fold over buffer [6]: 27 fold

B7: 85802_06H06 (antibody, V domains shown)
VH: QVHLQESGPGLVKPSETLSLTCTVSGGSISYYYWNWIRQPPGKGLEWIASIYNSGNINYNPSLKSRVTISVDTSKNQFSLKLTSVTAADTAVYYCARGGYSYGYFDNWGQGILVTVSS
VL: SYELTQPPSVSVSPGQTASITCSGRELGNKYAYWYQQKPGQSPVLVIYEDYKRPSGIPERFSGSNSGNTATLTISGTQAMDEADYYCQAWDSSTVIFGGGTKLTVL
notes: also called 85802_06H06A
- Fold over parental 293T [4]: 10 fold
- Fold over parental 293T [5]: 2.9 fold
- Fold over buffer [6]: 34 fold

B8: 85802_06F06 (antibody, V domains shown)
VH: QVQLQESGPGLVKPSETLSLTCTVSGGSISSYYWSWIRQPPGKGLEWFGYIYDSGSTNYNPSLKSRVTISVDTSKNQFSLKLSSVTAADTAVYYCARGSYFWYFDLWGRGTLVTVSS
VL: B7 VL with R25D, E26K, N29A, Y33S, Q36H, E49Q, Y51T, I96V
notes: also called 85802_06F06A
- Fold over parental 293T [4]: 14 fold
- Fold over parental 293T [5]: 3.3 fold
- Fold over buffer [6]: 35 fold

B9: 85801_05G01 (antibody, V domains shown)
VH: QVQLVQSGAEVKKPGASAKVSCKASGYTFTDYYLHWVRQAPGQGLEWMGWINPNNGGTHYAQKFQGRVTMTRDTSISTAYMELSRLRSDDTAVYYCAREMGGTTAFDYWGQGTLVTVSS
VL: DIQMTQSPSSLSASVGDRVTITCRASQGIGNYLAWFQQRPGKAPKSLIYAASSLQSGVPSKFSGSGSGTDFTLTISSLQPADFAIYYCQQYNIYPYTFGPGTRLEIK
notes: also called 85801_05G01A
- Fold over parental 293T [1]: 170 fold
- Fold over parental 293T [2]: 73 fold
- Fold over buffer [3]: 7 fold

B10: 85801_06L19 (antibody, V domains shown)
VH: QVQLVQSGAEVKKPGASVKVSCKASGYTFTDYYIHWVRQAPGQGLEWMGWINPDSGGTHYAQKFQGRVTMTRDTSISTVYMDLSRLRSDDTAVYYCAREGEGLASFDSWGQGTLVTVSS
VL: B9 VL with D17N, G30N, R39K, A81E, I85T, I93N, Y96F, R103K, L104V, E105D
notes: also called 85801_06L19A
- Fold over parental 293T [1]: 73 fold
- Fold over parental 293T [2]: 25 fold
- Fold over buffer [3]: 9 fold

B11: 85801_10F19 (antibody, V domains shown)
VH: QVQLVQSGAEVRKPGASVKVSCKASGYTFTDYYMHWVRQAPGQGREWMGWINPNSGGTHYAQKFQGRVTMTWDTSISTAYMELSRLRSDDTAVYYCAREGATTVYFDYWGQGTLVTVSS
VL: DIQLTQSPSFLSASVGDRVTLTCRASQGINNYLAWYQEKPGKAPNPLIYDASTLQSGVPSRFSGSGSGTEFTLTISSLQPEDFATYYCQQLNMYPYTFGQGTKLEIK
notes: also called 85801_10F19A
- Fold over parental 293T [1]: 41 fold
- Fold over parental 293T [2]: 16 fold
- Fold over buffer [3]: 8 fold

B12: 85802_02K15 (antibody, V domains shown)
VH: EVQLVQSGTEVKKPGESLKISCKGSGYSFTSYWIGWVRQMPGKGLEWMGNIYPGDSDTRYSPSFQGHVTISADKSISTAYLQWSSLKASDTAMYYCARRGGGYWGQGTLVTVSS
VL: not shown
notes: also called 85802_02K15A
- Fold over parental 293T [4]: 6 fold
- Fold over parental 293T [5]: 3.3 fold
- Fold over buffer [6]: 53 fold
